# According to patent US20150231240A1, “ANTI-C16ORF54 ANTIBODIES AND METHODS OF USE THEREOF” (priority 2012, published 2015):
# T1: C16orf54 in cells and human tissues (Homo sapiens, UniProt Q6UWD8)
# T1 construct: from tissue; host or cells: isolated hematological tumour cells (lymphoma, AML, CLL) and human tissues, OCT-embedded frozen sections
# T1 sequence (Q6UWD8 1-224): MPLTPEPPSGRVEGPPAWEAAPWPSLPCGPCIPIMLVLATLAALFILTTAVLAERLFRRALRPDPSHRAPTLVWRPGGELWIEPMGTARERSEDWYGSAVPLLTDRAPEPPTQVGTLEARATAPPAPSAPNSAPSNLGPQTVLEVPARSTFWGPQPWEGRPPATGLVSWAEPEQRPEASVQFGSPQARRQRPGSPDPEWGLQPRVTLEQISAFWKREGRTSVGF
# Molecular target: T1, C16orf54 in cells and human tissues
# Assay: Human C16orf54 immunohistochemistry (IHC)
# Type: binding
# Experimental: Anti-C16orf54 antibodies were used to detect C16orf54 expression as analyzed by immunohistochemistry (IHC). The transfected cell lines (5×10^7) and isolated hematological diseased cells were washed in PBS, centrifuged at 300 g for 10 minutes and the resultant cell pellets embedded and frozen in Tissue-Tek OCT compound (commercially available, e.g., Sakura Finetek USA, Inc., Torrence, Calif.; Fisher Scientific USA). 8 μm cryostat sections of the OCT embedded cells and human tissues were post-fixed in a 75% ethanol, 25% acetone mixture for 5 minutes followed by washing in PBS. The slides were then stained with exemplary primary anti-C16orf54 antibodies on a Dako Autostainer using standard avidin-biotin complex (ABC) IHC procedures. In some experiments, the endogenous peroxidase activity was blocked using Bloxall reagent (Vector SP-6000) for 5 minutes followed by avidin/biotin blocking reagents (Vector SP-2001) to block endogenous biotin within tissues. A pre-incubation with a protein blocker (Dako X0909) was performed followed by the primary antibodies incubation for 1 hour at room temperature. In some experiments, primary antibody 7-1C was diluted to a final concentration of 5 μg/ml and primary antibody 67-7A was diluted to a final concentration of 10 μg/ml using antibody diluent (Dako S3022). The control antibody used was a pan-mouse IgG antibody (Life Technologies 08-6599). In some experiments, after washing in PBS, the slides were incubated with a biotinylated horse anti-mouse antibody 1:200 (Vector BA-2001) for 30 minutes followed by a universal streptavidin-peroxidase conjugate (ABC-HRP Vector PK-6100) for 30 minutes. Diaminobenzedine was used as the chromagen (Sigma D5909) and the slides were counterstained with Mayers hematoxylin for 5 minutes, followed by dehydration and coverslipping.
molecule,measurement,setting,value
"R29-67-7A: murine anti-C16orf54 monoclonal antibody, IgG2a; VH SEQ ID NO: 12, VL SEQ ID NO: 14 (antibody, V domains shown, R29-67-7A heavy chain variable region; R29-67-7A light chain variable region) VH: MRVLILLWLFTAFPGILSDVQLQESGPGLVKPSQSLSLTCTVTGYSITSDYAWNWIRQFPGNKLEWMGYINYSGRTRYNPSLNSRISLTRDTSTNQFFLQLNSVTTEDTATYYCARENYDYEFYAMDYWGQGTSVTVSS VL: MESQAQVLMLLLLWVSGTCGDIVMSQSPSSLAVSVGEKVTMSCKSSQNLLYSSNQKNYLAWYQQKPGQSPKLLIYWASTRESGVPDRFTGSGSGTDFTLTISSVKAEDLAVYYCQQYYIYRTFGGGTKLEIK",C16orf54 (67-7A) IHC,AML sample AML-183L,Positive
same,C16orf54 (67-7A) IHC,AML sample AML-205L,Positive
same,C16orf54 (67-7A) IHC,AML sample AML-211L,Positive
same,C16orf54 (67-7A) IHC,AML sample AML-213L,Positive
same,C16orf54 (67-7A) IHC,CLL sample CLL-408L,Positive
same,C16orf54 (67-7A) IHC,CLL sample CLL-BC042,Positive
same,C16orf54 (67-7A) IHC,CLL sample CLL-BC043,Positive
same,C16orf54 (67-7A) IHC,CLL sample CLL-UF048,Positive
same,C16orf54 (67-7A) IHC,Lymphoma sample MD00402,Positive
same,C16orf54 (67-7A) IHC,Lymphoma sample OD39986,Positive
same,C16orf54 (67-7A) IHC,Lymphoma sample OD41079,Positive
same,C16orf54 (67-7A) IHC,Lymphoma sample OD41411,Positive
same,C16orf54 (67-7A) IHC,Lymphoma sample WD3517,Positive
same,IHC staining of hematological tumors,"frozen sections, 10 μg/ml primary antibody",confirm the C16orf54 IHC expression in hematological tumors
